Data as given in patent US20120107267A1 (Novo Nordisk, published 2012).

Biological target: T1, His6-tagged hIL-21Rα extracellular domain (human, UniProt Q9HBE5 20-232)
T1 construct: extracellular domain; also called His6-tagged receptor EC domain; hIL-21Rα chain; not shown: His6 tag
Test: ALPHAScreen competition against biotinylated hIL-21 HA

T1 sequence (Q9HBE5 20-232): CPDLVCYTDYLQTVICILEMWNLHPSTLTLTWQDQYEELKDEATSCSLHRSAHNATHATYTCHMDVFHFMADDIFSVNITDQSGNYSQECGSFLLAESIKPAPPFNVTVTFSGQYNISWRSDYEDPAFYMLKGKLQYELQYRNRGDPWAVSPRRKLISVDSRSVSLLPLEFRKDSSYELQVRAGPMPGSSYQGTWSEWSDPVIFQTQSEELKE

B1: hIL-21 HA triple mutant [Q116D, H120D, L123D] (ligand)
chain: QGQDRHMIRMRQLIDIVDQLKNYVNDLVPEFLPAPEDVETNCEWSAFSCFQKAQLKSANTGNNERIINVSIKKLKRKPPSTNAGRRQKHRLTCPSCDSYEKKPPKEFLERFKSLLDKMIDQHDSSRTHGSEDSYPYDVPDYA
notes: Made by site-directed mutagenesis of the pcDNA3.1(+)/hIL-21HA plasmid and expressed in HEK293 cells
binding result: binds
